“Also recorded” adds a separate entry of the source.
What was measured:
Fabry mice [1] = test: Substrate reduction therapy in Fabry mouse model: Gb3 and lyso-Gb3 levels; type: in vivo; settings: Fabry mice, in diet for 4 months starting at 8 months old; GZ 452 60 mg/kg/day, GZ 638 300 mg/kg/day
Description: In the following experiments, mice dosed with GCS inhibitors at either ˜60 mg/kg/day of (S)-Quinuclidin-3-yl(2-(2-(4-fluorophenyl)thiazol-4-yl)propan-2-yl)carbamate (S)-2-hydroxysuccinate salt (hereinafter “GZ 452”) or ˜300 mg/kg/day of (1R,2R)-Octanoic acid[2-(2′,3′-dihydro-benzo[1,4] dioxin-6′-yl)-2-hydroxy-1-pyrrolidin-1-ylmethyl-ethyl]-amide-L-tartaric acid salt (hereinafter “GZ 638”) as a component of the pelleted food diet provided ad libitum. Lipid analysis was by ESI/MS as described in Marshall et al., PLoS ONE 5:e15033 (2010). As discussed in further detail below, treatment started when the mice were 3, 8 or 12 months of age to test the efficacy at different disease severities. Blood and urine was collected monthly and periodic tissue harvests provided materials to evaluate efficacy of the therapy (Gb3 and lyso-Gb3 levels). […] As further discussed below, the efficacy of SMT was affected by the age of the mice at the start of treatment. Generally, the older the mouse, the higher the levels of Gb3 stored and thus a longer period of treatment was required in order to affect similar therapeutic benefit (see FIG. 4). The experiments and results are described further below.
In this experiment, Fabry mice were treated with GCS inhibitors in their diet for 4 months starting at 8 months old. […] Age-matched wild-type levels (WT) are also shown. […]

K14 mice = settings: neonatal (P1-P3) intracerebroventricular injections, previous experiments (Cabrera-Salazar et al. 2010); cited from earlier work
Fabry mice [2] = test: Combination therapy (ERT + SRT) in Fabry mouse model: plasma and urine Gb3 and lyso-Gb3; type: in vivo; settings: Fabry mice treated 2 months from 3 months of age; ERT 1 mg/kg iv every 2 months; SRT GZ 452 ~60 mg/kg/day in diet
Text: Fabry mice were used to test the in vivo efficacy of combining enzyme replacement therapy with small molecule therapy in a concurrent treatment format. The study was designed to evaluate whether substrate inhibition (i.e. “substrate reduction therapy”) using the GZ 452 compound could reduce re-accumulation of the storage material Gb3 and lyso-Gb3. The study protocol called for three distinct treatment groups of 3 month old male Fabry mice (FIG. 6A). The first group received intravenous injections of alpha-galactosidase A enzyme (ERT) at 1 mg/kg to reduce Gb3 levels and was repeated every 2 months. The second group received the same enzyme injections as group 1, but also were dosed with GZ 452 at ˜60 mg/kg/day as a component of the pelleted diet. The third group received only the daily dosing of GZ 452 in their diet. A fourth group received no treatment to serve as vehicle controls and a fifth group of wild-type animals provided ‘normal’ Gb3 and lyso-Gb3 values. Monthly urine and blood collections and three monthly tissue harvests provide materials to evaluate relative efficacy of the therapies (FIG. 6A).
After 2 months (mice were 5 months old), plasma (FIG. 6B, panels A and C) and urine (FIG. 6B, panels B & D) were analyzed for Gb3 (FIG. 6B, panels A and B) and lyso-Gb3 (FIG. 6B, panels C and D). […] SMT therapy alone or in combination with ERT was also capable of affecting (reducing accumulation) of lyso-Gb3.

Fabry mice [3] = test: Thermal nociceptive response (55° C. hotplate) in Fabry mice; type: in vivo, mouse; settings: 10 month old Fabry mice after 7 months of treatment
Description: Three month old Fabry mice were treated with GZ 452 in their diet (SRT), αgal once every 2 months (ERT), or a combination of the 2 treatments (E+S), as described above. […]

Q: Which “Gb3 in visceral tissue (kidney, heart) relative to the starting levels” value (Fabry mice [1]) does the source give for “(1R,2R)-Octanoic acid[2-(2′,3′-dihydro-benzo[1,4] dioxin-6′-yl)-2-hydroxy-1-pyrrolidin-1-ylmethyl-ethyl]-amide-L-tartaric acid salt [GZ 638, reference compound]” here?
A: The value was “effective at inhibiting further accumulation of tissue Gb3”.

B1: GC: Recombinant human glucocerebrosidase (rhGC), reformulated for ICV administration (protein, UniProt P04062 40-536, looked up)
Lysosomal acid …: ARPCIPKSFGYSSVVCVCNATYCDSFDPPTFPALGTFSRYESTRSGRRMELSMGPIQANHTGTGLLLTLQPEQKFQKVKGFGGAMTDAAALNILALSPPAQNLLLKSYFSEEGIGYNIIRVPMASCDFSIRTYTYADTPDDFQLHNFSLPEEDTKLKIPLIHRALQLAQRPVSLLASPWTSPTWLKTNGAVNGKGSLKGQPGDIYHQTWARYFVKFLDAYAEHKLQFWAVTAENEPSAGLLSGYPFQCLGFTPEHQRDFIARDLGPTLANSTHHNVRLLMLDDQRLLLPHWAKVVLTDPEAAKYVHGIAVHWYLDFLAPAKATLGETHRLFPNTMLFASEACVGSKFWEQSVRLGSWDRGMQYSHSIITNLLYHVVGWTDWNLALNPEGGPNWVRNFVDSPIIVDITKDTFYKQPMFYHLGHFSKFIPEGSQRVGLVASQKNDLDAVALMHPDGSAVVVVLNRSSKDVPLTIKDPAVGFLETISPGYSIHTYLWRRQ
Q: Which median survival (K14 mice) does the source give for B1 here?
A: Its median survival is 23 days.

B2: ERT: alpha-galactosidase A enzyme (ERT), intravenous injections at 1 mg/kg every 2 months (protein, UniProt P06280 32-429, looked up)
Alpha-galactosidase A: LDNGLARTPTMGWLHWERFMCNLDCQEEPDSCISEKLFMEMAELMVSEGWKDAGYEYLCIDDCWMAPQRDSEGRLQADPQRFPHGIRQLANYVHSKGLKLGIYADVGNKTCAGFPGSFGYYDIDAQTFADWGVDLLKFDGCYCDSLENLADGYKHMSLALNRTGRSIVYSCEWPLYMWPFQKPNYTEIRQYCNHWRNFADIDDSWKSIKSILDWTSFNQERIVDVAGPGGWNDPDMLVIGNFGLSWNQQVTQMALWAIMAAPLFMSNDLRHISPQAKALLQDKDVIAINQDPLGKQGYQLRQGDNFEVWERPLSGLAWAVAMINRQEIGGPRSYTIAVASLGKGVACNPACFITQLLPVKRKLGFYEWTSRLRSHINPTGTVLLQLENTMQMSLKDLL
Q: What does the source list for B2?
A: plasma Gb3 level (Fabry mice [2]): to a greater extent than SMT; also recorded: reduced; plasma lyso-Gb3 level (Fabry mice [2]): reduced; urine Gb3 level (Fabry mice [2]): unaffected; thermal nociceptive response time (latency) vs untreated (Fabry mice [3]): not significantly different to the untreated group

Reference: patent publication US9126993B2, “Glucosylceramide synthase inhibitors” (GENZYME CORPORATION, priority 2011, dated 2015)
